Target: OsHsfB4d (Oryza sativa (rice; cv. Zhonghua 11?), UniProt Q10KX8 1-305)
Assay: EMSA; […], room temperature 20 min, […]; buffer, […]
Conditions: protein: recombinant; tags: 6xHis (pET-28a); chain copies: 3

Chain of OsHsfB4d (Q10KX8 whole entry): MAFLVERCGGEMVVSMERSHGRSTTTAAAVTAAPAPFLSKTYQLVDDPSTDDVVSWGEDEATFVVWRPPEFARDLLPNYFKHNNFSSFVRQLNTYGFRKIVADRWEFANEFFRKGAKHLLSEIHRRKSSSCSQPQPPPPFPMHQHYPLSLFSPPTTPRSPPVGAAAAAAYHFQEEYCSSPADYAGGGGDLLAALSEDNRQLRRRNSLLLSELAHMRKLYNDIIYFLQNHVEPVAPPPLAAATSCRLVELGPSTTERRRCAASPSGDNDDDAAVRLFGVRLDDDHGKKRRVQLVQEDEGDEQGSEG

Binder	binding result
18.0-HSE (perfect HSE only) (dsDNA) DNA 1: CTTGGAATAAGCTTCTAGAAACTTCCAGTTTG DNA 2: CAAACTGGAAGTTTCTAGAAGCTTATTCCAAG	binds
18.0-HSE-mutant (Mu) (dsDNA) DNA 1: CTTGGAATAAGCTTCTACAAACAATCAGTTTG DNA 2: CAAACTGATTGTTTGTAGAAGCTTATTCCAAG	no binding
